Consider one molecule from patent US20250049941A1, “ANTI-CD39 Antibody-Drug Conjugate And Use Thereof” (priority 2021, published 2025).

The target in the test is T1, human CD39 naturally expressed on MOLP-8 cells (human, UniProt P49961 1-510).
T1 construct: whole, on cells; also called CD39 antigen; CD39 protein
T1 sequence (looked up): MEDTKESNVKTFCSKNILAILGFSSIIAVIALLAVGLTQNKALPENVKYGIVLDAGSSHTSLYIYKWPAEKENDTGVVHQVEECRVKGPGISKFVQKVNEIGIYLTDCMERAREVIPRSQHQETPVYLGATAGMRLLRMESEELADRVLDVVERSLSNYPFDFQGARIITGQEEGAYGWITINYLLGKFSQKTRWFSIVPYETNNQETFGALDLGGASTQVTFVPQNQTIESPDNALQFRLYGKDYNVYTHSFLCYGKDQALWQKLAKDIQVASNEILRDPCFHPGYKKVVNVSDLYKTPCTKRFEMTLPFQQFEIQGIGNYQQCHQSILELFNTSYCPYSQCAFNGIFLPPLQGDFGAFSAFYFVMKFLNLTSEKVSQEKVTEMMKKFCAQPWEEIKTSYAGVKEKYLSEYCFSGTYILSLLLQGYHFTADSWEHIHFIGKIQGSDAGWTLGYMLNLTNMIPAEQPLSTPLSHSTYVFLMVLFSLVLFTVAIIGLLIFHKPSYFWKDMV
Description: flow cytometry on MOLP-8 cells, FITC goat anti-human H+L secondary antibody. A general note: In flow cytometry, cells or beads pass a laser one at a time.

B1: humanized monoclonal antibody F314 (antibody, human IgG4 S228P, kappa, V domains shown)
VH: QVQLVQSGAEVKKPGASVKVSCKASGYTFTNYWMYWVRQRPGRGLEWIGRIAPSSGATKYNEKFKNRATLTVDTSISTAYMELSRLRSDDTAVYYCARSGIYYDYDWFFDVWGQGTTVTVSS
VL: DIQMTQSPSSLSASVGDRVTITCKASQDINKYIGWYQQKPGKAPKLLIHYTSTLQPGVPSRFSGSGSGRDYTFTISSLQPEDIATYYCLQYHALLFTFGQGTKLEIKR
notes: Expressed in CHO-S cells; also called F314 monoclonal antibody; naked antibody
As for B1, the binding result is on record as “binds”.
